Data reported in IntAct's records for PubMed 23178593.

B1: Aprataxin and PNK-like factor (Homo sapiens), Q8IW19 (parent)
chain: MSGGFELQPRDGGPRVALAPGETVIGRGPLLGITDKRVSRRHAILEVAGGQLRIKPIHTNPCFYQSSEKSQLLPLKPNLWCYLNPGDSFSLLVDKYIFRILSIPSEVEMQCTLRNSQVLDEDNILNETPKSPVINLPHETTGASQLEGSTEIAKTQMTPTNSVSFLGENRDCNKQQPILAERKRILPTWMLAEHLSDQNLSVPAISGGNVIQGSGKEEICKDKSQLNTTQQGRRQLISSGSSENTSAEQDTGEECKNTDQEESTISSKEMPQSFSAITLSNTEMNNIKTNAQRNKLPIEELGKVSKHKIATKRTPHKEDEAMSCSENCSSAQGDSLQDESQGSHSESSSNPSNPETLHAKATDSVLQGSEGNKVKRTSCMYGANCYRKNPVHFQHFSHPGDSDYGGVQIVGQDETDDRPECPYGPSCYRKNPQHKIEYRHNTLPVRNVLDEDNDNVGQPNEYDLNDSFLDDEEEDYEPTDEDSDWEPGKEDEEKEDVEELLKEAKRFMKRK

Variants of: B1
Details: with xrcc5_human XRCC5, P13010
Chain of xrcc5_human XRCC5, P13010 (P13010 whole entry): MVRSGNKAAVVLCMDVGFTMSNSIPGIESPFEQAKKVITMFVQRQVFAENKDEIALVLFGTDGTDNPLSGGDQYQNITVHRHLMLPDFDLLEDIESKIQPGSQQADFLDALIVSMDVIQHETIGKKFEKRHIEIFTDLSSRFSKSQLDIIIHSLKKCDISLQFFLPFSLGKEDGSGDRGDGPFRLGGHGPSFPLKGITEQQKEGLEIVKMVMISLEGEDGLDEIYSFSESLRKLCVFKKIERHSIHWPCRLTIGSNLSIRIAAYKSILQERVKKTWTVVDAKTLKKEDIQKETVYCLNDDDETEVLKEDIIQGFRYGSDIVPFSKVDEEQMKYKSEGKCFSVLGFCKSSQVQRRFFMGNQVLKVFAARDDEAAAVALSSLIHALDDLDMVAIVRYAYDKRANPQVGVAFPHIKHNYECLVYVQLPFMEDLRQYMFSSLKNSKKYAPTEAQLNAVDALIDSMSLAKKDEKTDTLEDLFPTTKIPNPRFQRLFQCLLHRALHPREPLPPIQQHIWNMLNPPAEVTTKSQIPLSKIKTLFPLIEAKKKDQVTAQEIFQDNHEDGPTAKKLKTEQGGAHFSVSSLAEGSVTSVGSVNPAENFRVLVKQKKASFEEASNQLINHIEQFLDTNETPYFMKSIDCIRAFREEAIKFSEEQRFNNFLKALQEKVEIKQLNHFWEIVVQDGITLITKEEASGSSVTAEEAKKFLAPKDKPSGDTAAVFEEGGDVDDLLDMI

Variant | effect of a mutation on the interaction
W189G | disrupting interaction
